# Test results: patent publication US20120135912A1 (PERSEID THERAPEUTICS, published 2012)
# Target: T1, human VLA4 (integrin alpha4beta1) on the surface of U937 cells (human, UniProt P13612 34-1032; P05556 21-798)
# T1 construct: whole, on cells; Endogenous VLA4 of U937 cells; assay buffer held 1 mM each of CaCl2, MgCl2 and MnCl2; also called cell-surface human VLA4
# Assay: static cell adhesion assay: calcein-labelled U937 cells on wells coated with 7D-VCAM-1, buffer with 1 mM MnCl2 (Example 13)
# Method: Prior to assaying, the U937 cells were re-suspended in labeling buffer (RPMI 1640 culture media without phenol red, 10% FBS; Invitrogen), then labeled with 0.5 μg/ml Calcein-AM at 37° C. for 30 minutes on a rotator. Subsequently, the cells were washed three times with labeling buffer then resuspended at 5×10^6 cells/ml in assay buffer (HEPES CaMgMn buffer: 50 mM HEPES, 150 mM NaCl, 1 mM CaCl₂, 1 mM MgCl₂, 1 mM MnCl2 pH 7.4).
# The test compounds (i.e., the 2D-VCAM-1 variant polypeptides) were diluted in dilution buffer and added to VCAM-1-coated plates. […] Plates were spun down at 280×g for 5 minutes with assay buffer decanted by inversion before measuring fluorescence intensity (excitation=485 nm, emission=530 nm) with LJL Analyst HT 96.384 (Molecular Devices, Sunnyvale, Calif.).
# FIG. 5 is a graph showing the cell adhesion index for anti-VLA4-antibody (used as a positive control for maximal inhibition of cell adherence), dilution buffer alone (“no treatment”, a control to show maximal cell adherence to the immobilized VCAM-1), 2D-VCAM-1 valiant Clone 46 (SEQ ID NO:12), Q38L-2D-VCAM-1 polypeptide (SEQ ID NO:10), and human 2D-VCAM-1 (SEQ ID NO:2). The cell adhesion index was calculated as (fluorescence intensity, VCAM-coated well)/(fluorescence intensity, non-CAM-1-coated well). […]
# T1 sequence (P13612 34-1032, chain 1 of 2): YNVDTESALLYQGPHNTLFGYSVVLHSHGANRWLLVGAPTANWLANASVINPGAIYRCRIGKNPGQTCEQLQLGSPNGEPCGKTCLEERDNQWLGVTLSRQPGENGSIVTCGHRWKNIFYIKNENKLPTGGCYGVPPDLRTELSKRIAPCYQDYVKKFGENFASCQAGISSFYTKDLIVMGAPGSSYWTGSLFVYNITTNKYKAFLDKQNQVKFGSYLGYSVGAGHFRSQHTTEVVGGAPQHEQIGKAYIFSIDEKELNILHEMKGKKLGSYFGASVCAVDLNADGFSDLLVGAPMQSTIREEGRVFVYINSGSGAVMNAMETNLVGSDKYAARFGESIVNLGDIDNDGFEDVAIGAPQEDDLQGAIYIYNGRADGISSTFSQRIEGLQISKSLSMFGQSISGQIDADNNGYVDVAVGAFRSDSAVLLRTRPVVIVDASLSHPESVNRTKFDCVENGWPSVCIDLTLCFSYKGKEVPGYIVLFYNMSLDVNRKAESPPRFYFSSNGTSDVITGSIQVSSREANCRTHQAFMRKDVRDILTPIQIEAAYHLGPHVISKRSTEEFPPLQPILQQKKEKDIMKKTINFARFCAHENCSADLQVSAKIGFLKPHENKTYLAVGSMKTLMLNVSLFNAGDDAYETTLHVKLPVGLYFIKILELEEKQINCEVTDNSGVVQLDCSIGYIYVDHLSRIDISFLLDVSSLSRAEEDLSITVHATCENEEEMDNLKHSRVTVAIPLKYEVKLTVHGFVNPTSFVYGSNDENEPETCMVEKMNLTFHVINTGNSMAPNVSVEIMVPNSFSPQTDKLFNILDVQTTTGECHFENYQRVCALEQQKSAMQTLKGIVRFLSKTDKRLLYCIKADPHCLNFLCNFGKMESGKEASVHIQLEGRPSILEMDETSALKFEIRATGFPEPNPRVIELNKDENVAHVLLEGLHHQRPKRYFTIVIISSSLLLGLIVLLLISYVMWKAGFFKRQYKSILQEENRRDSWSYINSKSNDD
# T1 sequence (P05556 21-798, chain 2 of 2): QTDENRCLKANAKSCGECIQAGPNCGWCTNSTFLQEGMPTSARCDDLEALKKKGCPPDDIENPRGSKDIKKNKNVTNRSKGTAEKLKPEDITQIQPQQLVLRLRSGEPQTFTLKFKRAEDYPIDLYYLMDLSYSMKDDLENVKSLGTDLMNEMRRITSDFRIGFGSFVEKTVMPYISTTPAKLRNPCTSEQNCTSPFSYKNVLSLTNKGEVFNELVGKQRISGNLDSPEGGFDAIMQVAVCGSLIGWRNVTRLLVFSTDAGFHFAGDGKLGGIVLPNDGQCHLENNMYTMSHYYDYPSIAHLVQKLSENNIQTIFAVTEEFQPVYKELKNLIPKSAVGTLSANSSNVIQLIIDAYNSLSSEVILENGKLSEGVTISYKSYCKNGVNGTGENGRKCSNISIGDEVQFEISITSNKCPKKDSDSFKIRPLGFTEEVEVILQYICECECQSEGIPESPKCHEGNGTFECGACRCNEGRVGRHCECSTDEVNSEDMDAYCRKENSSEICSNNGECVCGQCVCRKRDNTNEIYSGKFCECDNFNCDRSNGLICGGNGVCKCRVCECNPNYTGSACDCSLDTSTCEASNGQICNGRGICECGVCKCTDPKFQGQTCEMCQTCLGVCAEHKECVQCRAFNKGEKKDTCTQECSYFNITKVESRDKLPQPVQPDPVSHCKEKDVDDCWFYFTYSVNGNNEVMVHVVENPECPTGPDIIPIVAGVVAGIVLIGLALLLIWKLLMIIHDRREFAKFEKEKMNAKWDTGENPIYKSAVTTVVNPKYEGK
binder,measurement,value
"recombinant human 7D-VCAM-1 (ligand, Bought from R&D Systems; also called immobilized VCAM-1; 7 domain form of VCAM-1) FKIETTPESRYLAQIGDSVSLTCSTTGCESPFFSWRTQIDSPLNGKVTNEGTTSTLTMNPVSFGNEHSYLCTATCESRKLEKGIQVEIYSFPKDPEIHLSGPLEAGKPITVKCSVADVYPFDRLEIDLLKGDHLMKSQEFLEDADRKSLETKSLEVTFTPVIEDIGKVLVCRAKLHIDEMDSVPTVRQAVKELQVYISPKNTVISVNPSTKLQEGGSVTMTCSSEGLPAPEIFWSKKLDNGNLQHLSGNATLTLIAMRMEDSGIYVCEGVNLIGKNRKEVELIVQEKPFTVEISPGPRIAAQIGDSVMLTCSVMGCESPSFSWRTQIDSPLSGKVRSEGTNSTLTLSPVSFENEHSYLCTVTCGHKKLEKGIQVELYSFPRDPEIEMSGGLVNGSSVTVSCKVPSVYPLDRLEIELLKGETILENIEFLEDTDMKSLENKSLEMTFIPTIEDTGKALVCQAKLHIDDMEFEPKQRQSTQTLYVNVAPRDTTVLVSPSSILEEGSSVNMTCLSQGFPAPKILWSRQLPNGELQPLSENATLTLISTKMEDSGVYLCEGINQAGRSRKEVELIIQVTPKDIKLTAFPSESVKEGDTVIISCTCGNVPETWIILKKKAETGDTVLKSIDGAYTIRKAQLKDAGVYECESKNKVGSQLRSLTL",binding result,binds
